Test [1] deals with T1, human PD-L1-Fc (SinoBiological) (human, UniProt Q9NZQ7 19-239).
T1 construct: Bought; not shown: Fc of a bought fusion protein
The test is described as follows: BLI (Octet RED96), VHH on Penta-HIS sensor, human PD-L1-Fc in solution.

Test [2] deals with T2, cynomolgus PD-L1-Fc (SinoBiological) (cynomolgus, UniProt G7PSE7 19-238).
T2 construct: Bought; also called Cyno PD-L1; not shown: Fc carrier (and any linker) of the bought SinoBiological fusion
The test is described as follows: BLI (Octet RED96), VHH on Penta-HIS sensor, cynomolgus PD-L1-Fc in solution. In general terms: BLI is a label-free optical method that tracks binding on a fibre tip over time.

Test [3] addresses T3, recombinant extracellular domain of PD-L1 with C-terminal FLAG-tag (human, UniProt Q9NZQ7 19-238).
T3 construct: extracellular domain; The sentence itself names no species; Immobilised through the M2 anti-FLAG antibody; not shown: C-terminal FLAG-tag
As to the kind of experiment: plate binding assay, VHH against hPD-1-hFc binding to immobilised PD-L1 ECD-FLAG.

T1 sequence (Q9NZQ7 19-239 limits assumed): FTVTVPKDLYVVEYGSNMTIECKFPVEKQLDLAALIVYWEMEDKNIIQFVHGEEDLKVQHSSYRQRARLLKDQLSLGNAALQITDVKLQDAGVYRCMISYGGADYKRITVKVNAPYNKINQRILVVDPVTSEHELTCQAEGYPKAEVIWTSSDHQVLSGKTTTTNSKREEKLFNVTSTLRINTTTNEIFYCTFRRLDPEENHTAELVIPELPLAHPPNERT
T3 sequence (Q9NZQ7 19-238): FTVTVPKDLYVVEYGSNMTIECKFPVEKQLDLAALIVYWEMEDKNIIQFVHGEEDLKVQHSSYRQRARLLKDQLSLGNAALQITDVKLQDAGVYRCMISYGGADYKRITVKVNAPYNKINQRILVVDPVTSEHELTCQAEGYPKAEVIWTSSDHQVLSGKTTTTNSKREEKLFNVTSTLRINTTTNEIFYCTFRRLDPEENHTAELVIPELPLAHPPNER
T2 sequence (G7PSE7 entry or part of it limits assumed): as the sequence (Q9NZQ7 19-238) above, with A33T, A34S, S62N, R68Q, Q82R, F173L, T185A, T192I, H215L counted along it

B1: 2LIG27 VHH-(His)6 (pHEN6C-PelB-PD-L1 VHH-(His)6) (VHH)
VHH: QVQLQESGGGVVQAGGSLRLSCTASGTIFSINRMDWFRQAPGKQRELVALITSDGTPTYADSAKGRFTISRDNTKKTVSLQMNSLKPEDTAVYYCHVSSGVYNYWGQGTQVTVSS
A word on the Kd: it is the concentration at which binding is half-saturated. Low values mean a tighter complex, high ones a looser complex. The term koff denotes the first-order rate constant of dissociation. Read a high koff as fast dissociation. In general, kon refers to the second-order rate constant of association. Read a low kon as slower complex formation. For orientation: IC50 means the point on the concentration scale where inhibition reaches its midpoint. In the case of B1, in test [1], binding was put at a Kd of 7.51 nM, the off-rate (koff) amounted to 0.0035 s⁻¹ and the on-rate constant (kon) turned out to be 472000 M⁻¹ s⁻¹. In test [2], this molecule returned a Kd of 8.74 nM, an off-rate (koff) of 0.0028 s⁻¹ and a kon of 321000 M⁻¹ s⁻¹. Also, in test [3], the half-maximal inhibitory concentration (IC50) worked out at 9.57 ng/mL.

B2: 2LIG97 VHH-(His)6 (pHEN6C-PelB-PD-L1 VHH-(His)6) (VHH)
VHH: QVQLQESGGGLVQAGESLRLSCTASGTIFSINRMDWFRQAPGKQRELVALITSDGTPTYADSAKGRFTISRDNTKKTVSLQMNSLKPEDTAVYYCHVSSGVYNYWGQGTQVTVSS
In test [1], B2 had an equilibrium dissociation constant (Kd) of 4.35 nM, a koff of 0.00198 s⁻¹ and an on-rate (kon) of 423000 M⁻¹ s⁻¹. In addition, in test [2], the equilibrium dissociation constant (Kd) was 9.16 nM, the off-rate (koff) turned out to be 0.00293 s⁻¹ and the association rate constant (kon) was 319000 M⁻¹ s⁻¹. Moreover, the IC50 in test [3] was 4.81 ng/mL.

B3: 3LIG8 VHH-(His)6 (pHEN6C-PelB-PD-L1 VHH-(His)6) (VHH)
VHH: QVQLQESGGGLVQPGGSLRLSCTASGTIFSINRMDWFRQAPGKQRELVALITSDGTPTYADSAKGRFTISRDNTKKTVSLQMNSLKPEDTAVYYCHVSSGVYNYWGQGTQVTVSS
For the molecule B3, in test [1], the Kd was found to be 8.77 nM, the koff was determined as 0.00419 s⁻¹ and the kon is 484000 M⁻¹ s⁻¹. In test [2], this molecule registered a Kd of 5.98 nM, a koff of 0.00305 s⁻¹ and a kon of 812000 M⁻¹ s⁻¹. Besides, the 50% inhibitory concentration (IC50) in test [3] is 12.8 ng/mL.

B4: 2LIG3 VHH-(His)6 (pHEN6C-PelB-PD-L1 VHH-(His)6) (VHH)
VHH: QVQLQESGGGLVQAGGSLRLSCTASGTIFSINHMDWFRQAPGKQRELVALITSDGFPTYADSAKGRFTISRDNTKKTVSLQMNSLKPEDTAVYYCHVSSGVYNYWGQGTQVTVSS
In test [1], B4 gave a Kd of 1.19 nM, a dissociation rate constant (koff) of 0.000448 s⁻¹ and an on-rate (kon) of 373000 M⁻¹ s⁻¹. In test [2], this molecule displayed a Kd of 0.89 nM, a dissociation rate constant (koff) of 0.000318 s⁻¹ and a kon of 358000 M⁻¹ s⁻¹. The IC50 in test [3] was found to be 18.9 ng/mL.

B5: 2LIG99 VHH-(His)6 (pHEN6C-PelB-PD-L1 VHH-(His)6) (VHH)
VHH: QVQLQESGGGLVQAGGSLRLSCTASGTIFSINRMDWFRQAPGKQRELVALITSDGTPAYADSAKGRFTISRDNTKKTVSLQMNSLKPEDTAVYYCHVSSGVYNYWGQGTQVTVSS
On to B5, for which, in test [1], binding was put at a Kd of 0.875 nM, the koff is 0.000634 s⁻¹ and the kon worked out at 729000 M⁻¹ s⁻¹. In test [2], the dissociation constant Kd is 1.01 nM, the koff turned out to be 0.000585 s⁻¹ and the kon came out at 584000 M⁻¹ s⁻¹. Also, in test [3], the IC50 came to 6.21 ng/mL.

B6: 2LIG189 VHH-(His)6 (pHEN6C-PelB-PD-L1 VHH-(His)6) (VHH)
VHH: QVQLQESGGGLVQAGGSLRLSCAASGKIFSGNDMGWYRQAPGKQRELVGIITSGGITDYADAVKGRFTISRDNAKNMMYLQMNSLKPEDTAVYYCNMRDRTIWWGQGTQVTVSS
Turning to B6, in test [1], the Kd was 3.03 nM, the koff worked out at 0.000524 s⁻¹ and the on-rate constant (kon) is 174000 M⁻¹ s⁻¹. In addition, in test [2], the Kd worked out at 3.8 nM, the koff came out at 0.000437 s⁻¹ and the kon turned out to be 114000 M⁻¹ s⁻¹. In test [3], the IC50 amounted to 8.81 ng/mL.

B7: 2LIG176 VHH-(His)6 (pHEN6C-PelB-PD-L1 VHH-(His)6) (VHH)
VHH: QVQLQESGGGLVQAGGSLRLSCAASESIFSIEAMGWYRQAPGKQRELVAAIFGGGFTNYADSVKGRFTISRDNANRTVYLQMNSLKPEDTAVYYCNADLVSGSSRLYDYWGQGTQVTVSS
As to B7, in test [1], the affinity, expressed as Kd, was 6.87 nM; the off-rate (koff) worked out at 0.00805 s⁻¹; the association rate constant (kon) is 1.18e+06 M⁻¹ s⁻¹. In test [2], binding was put at a Kd of 11.3 nM, the off-rate constant (koff) stood at 0.00573 s⁻¹ and the kon was determined as 508000 M⁻¹ s⁻¹. In test [3], the IC50 came out at 5.68 ng/mL.

The values are drawn from patent US20250361305A1 (ORIONIS BIOSCIENCES, published 2025).
